Assay results: US20230052369A1 (Zymeworks, published 2023)

Key:
[1] = molecular target: T1, 4-1BB human (human 4-1BB ECD-TEV-IgG1 hinge-CH2-CH3-10x His) (human); assay: ELISA, coated 4-1BB-Fc
T1 construct: 4-1BB residues 24-186 fused to TEV site, IgG1 Fc and His tag; the entry is the whole fusion; also called soluble human 4-1BB-Fc

[2] = molecular target: T2, 4-1BB dog-human (human-dog chimeric 4-1BB ECD-TEV-IgG1 Fc-10x His) (human with dog residues in domain 4); assay: ELISA, coated 4-1BB-Fc
T2 construct: Human 4-1BB ECD with K115Q, C121R, R134Q, R154S and V156A (already in the entry); also called dog-human chimeric 4-1BB; hybrid 4-1BB

[3] = molecular target: T3, 4-1BB dog (dog 4-1BB ECD-TEV-IgG1 Fc-10x His) (dog); assay: ELISA, coated 4-1BB-Fc
T3 construct: Uniprot E2R1R9 residues 24-186 fused to TEV site, IgG1 Fc and His tag

[4] = molecular target: T4, human 4-1BB, full-length, expressed on cells (human, UniProt Q07011 24-255); assay: flow cytometry, transfected 293E6 cells
T4 construct: also called CD137; TNFRSF9

[5] = molecular target: T5, truncated human 4-1BB domain 3 and 4 only construct (residues 86-255), on cells (human, UniProt Q07011 86-255); assay: flow cytometry, transfected 293E6 cells
T5 construct: on 293E6 cells co-transfected with mouse 4-1BB; also called 4-1BB domain 3 and 4 only construct (amino acids 86-255)

[6] = molecular target: T6, Mouse 4-1BB-Flag, on HEK293-6e cells (Mouse (Mus musculus), UniProt P20334 24-208); assay: CellInsight cell binding, transfected HEK293-6e
T6 construct: also called CL#11063

[7] = molecular target: T7, Cyno 4-1BB-Flag, on HEK293-6e cells (Cynomolgus (Macaca fascicularis)); assay: CellInsight cell binding, transfected HEK293-6e
T7 construct: also called Cynomolgus 4-1BB; CL#11070
T7 chain: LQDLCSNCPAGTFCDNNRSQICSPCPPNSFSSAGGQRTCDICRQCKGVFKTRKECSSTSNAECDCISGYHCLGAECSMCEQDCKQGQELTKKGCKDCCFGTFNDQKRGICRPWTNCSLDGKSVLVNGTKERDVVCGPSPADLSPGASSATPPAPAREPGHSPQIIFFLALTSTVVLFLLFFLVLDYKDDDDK

T2 sequence (chain, as listed by the source mutant limits assumed): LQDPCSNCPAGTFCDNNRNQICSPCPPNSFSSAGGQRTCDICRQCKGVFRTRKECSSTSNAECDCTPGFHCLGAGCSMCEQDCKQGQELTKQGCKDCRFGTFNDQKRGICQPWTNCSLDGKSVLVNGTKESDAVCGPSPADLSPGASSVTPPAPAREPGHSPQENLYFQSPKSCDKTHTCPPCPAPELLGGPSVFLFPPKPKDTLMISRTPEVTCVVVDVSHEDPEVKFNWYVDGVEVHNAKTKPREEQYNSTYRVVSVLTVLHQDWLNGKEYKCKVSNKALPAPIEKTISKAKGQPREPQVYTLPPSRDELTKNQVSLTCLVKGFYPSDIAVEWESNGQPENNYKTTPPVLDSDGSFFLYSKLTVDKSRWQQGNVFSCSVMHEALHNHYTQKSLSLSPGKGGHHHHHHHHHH
T3 sequence (chain, as listed by the source limits assumed): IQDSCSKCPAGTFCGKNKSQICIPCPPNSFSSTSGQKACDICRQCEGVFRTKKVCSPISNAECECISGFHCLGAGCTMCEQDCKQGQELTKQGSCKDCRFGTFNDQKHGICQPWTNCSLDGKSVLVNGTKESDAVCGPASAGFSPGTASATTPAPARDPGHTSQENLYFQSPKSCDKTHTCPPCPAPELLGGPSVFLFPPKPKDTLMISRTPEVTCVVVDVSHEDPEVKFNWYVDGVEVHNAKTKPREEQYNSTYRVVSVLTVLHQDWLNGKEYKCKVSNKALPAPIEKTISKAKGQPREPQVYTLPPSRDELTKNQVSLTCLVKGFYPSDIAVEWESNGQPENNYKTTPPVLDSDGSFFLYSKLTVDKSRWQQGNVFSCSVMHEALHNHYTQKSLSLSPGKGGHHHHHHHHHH
T6 sequence (P20334 other isoform, or with tags, fused parts or gaps limits assumed): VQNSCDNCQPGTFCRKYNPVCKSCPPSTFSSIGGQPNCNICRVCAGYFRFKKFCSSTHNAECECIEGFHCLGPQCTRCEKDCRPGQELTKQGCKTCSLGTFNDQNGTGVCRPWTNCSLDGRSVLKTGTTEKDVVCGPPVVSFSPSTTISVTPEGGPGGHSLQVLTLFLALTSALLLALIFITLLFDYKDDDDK
T5 sequence (Q07011 86-255): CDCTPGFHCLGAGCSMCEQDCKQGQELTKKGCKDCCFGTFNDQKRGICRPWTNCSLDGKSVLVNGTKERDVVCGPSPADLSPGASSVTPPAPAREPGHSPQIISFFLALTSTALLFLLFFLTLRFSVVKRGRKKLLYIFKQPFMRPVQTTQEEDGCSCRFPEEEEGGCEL
T4 sequence (Q07011 24-255): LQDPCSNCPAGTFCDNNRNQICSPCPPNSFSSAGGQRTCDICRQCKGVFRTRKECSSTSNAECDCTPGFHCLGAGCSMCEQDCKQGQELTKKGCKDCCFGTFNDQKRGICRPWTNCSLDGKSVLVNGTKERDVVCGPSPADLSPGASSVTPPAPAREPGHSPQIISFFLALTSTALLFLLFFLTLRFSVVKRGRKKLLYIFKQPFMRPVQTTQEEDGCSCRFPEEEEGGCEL
T1 sequence (chain, as listed by the source limits assumed): as the sequence (chain, as listed by the source mutant limits assumed) above, with Q92K, R98C, Q111R, S131R, A133V counted along it

B1: v20037 (antibody, human IgG1, kappa, L234A L235A, V domains shown)
VH: QVQLKESGPGLVAPSQSLSITCTVSGFSLTSYAISWVRQPPGKGLEWLGVIWPGGGTNYNSALKSRLSISKDNSKSQVFLKMNSLQTDDTARYYCARGTGTWYFDVWGAGTTVTVSS
VL: DIQMTQTTSSLSASLGDRVTISCSASQGISNYLNWYQQKPDGTVKLLIYYTSSLHSGVPSRFSGSGSGTDYSLTISNLEPEDIATYYCQQYSDLPWTFGGGTKLEIKR
notes: Mouse-human chimera; also called 6B3
Does B1 bind [1]?
Result: binds

Does B1 bind [2]?
Result: binds

Does B1 bind [3]?
Result: no binding

Does B1 bind [4]?
Result: binds

Does B1 bind [5]?
Result: no binding (tested: 2.5 µg of antibody)

Does B1 bind [6]?
Result: no binding

B2: v20032 (antibody, human IgG1, kappa, L234A L235A, V domains shown)
VH: QVQLKESGPGLVAPSQSLSITCTVSGFSLTSYAINWVRQPPGKGLEWLGVLWPGGGTNYNSALKSRLSISKDNSKSQVFLKMNSLQTDDTARYYCARGSGTWYFDVWGAGTTVTVSS
VL: DIQMTQTTSSLSASLGDRVTFSCSASQGISNYLNWYQQKPDGTVKLLIYYTSSLHLGVPSRFSGSGSGTDYSLTISNLEPEDIATYYCQQYSKLPWTFGGGTKLEIKR
notes: Mouse-human chimera; also called 4E6
Does B2 bind [1]?
Result: binds

Does B2 bind [2]?
Result: binds

Does B2 bind [3]?
Result: no binding

Does B2 bind [4]?
Result: binds

Does B2 bind [5]?
Result: no binding (tested: 2.5 µg of antibody)

Does B2 bind [6]?
Result: no binding

B3: v20025 (antibody, human IgG1, kappa, L234A L235A, V domains shown)
VH: QVQLKQSGPGLVQPSQSLSITCTVSGFSLTSYGVHWVRQSPGKGLEWLGVIWSGGSTDYNAAFISRLSISKDNSKSQVFFKMNSLQADDTAIYYCARNPLTATVMDYWGQGTSVTVSS
VL: DIVMTQSQKFMSTSVGDRVSVTCKASQNVGTNVAWYQQKPGQSRTVLIYSASYRHSGVPDRFTGSGSGTDFTLTISNVQSEDLAEYFCQQYNSYPLTFGTGTKLELKR
notes: Mouse-human chimera; also called 2E8
Which results are given for B3?
binding result [1]: binds; binding result [2]: binds; binding result [3]: no binding; binding result [4]: binds; binding result [5]: no binding (tested: 2.5 µg of antibody); binding result [7]: binds; binding result [6]: no binding
